The target in this assay is ectodomain of human DPP4 (residues 39-766) (human, UniProt P27487 39-766). The assay can be described thus: SPR. For orientation: SPR reads the build-up and loss of mass on a sensor chip optically.

B1: MERS-CoV RBD (residues 367-588) (domain or fragment)
chain: EAKPSGSVVEQAEGVECDFSPLLSGTPPQVYNFKRLVFTNCNYNLTKLLSLFSVNDFTCSQISPAAIASNCYSSLILDYFSYPLSMKSDLSVSSAGPISQFNYKQSFSNPTCLILATVPHNLTTITKPLKYSYINKCSRFLSDDRTEVPQLVNANQYSPCVSIVPSTVWEDGDYYRKQLSPLEGGGWLVASGSTVAMTEQLQMGFGITVQYGTDTNSVCPKL
Take B1: the binding result is reported as “binds”.

(Values after article PMC7104183 (Cell Reports, 2018).)
